According to publication PMC12345223:

T1: ChCpc1;ChAtf1 (Cochliobolus heterostrophus C4 (Tox1+, …, UniProt M2T2C6;M2TIN4 1-465;1-567, |))
T1 sequence 1: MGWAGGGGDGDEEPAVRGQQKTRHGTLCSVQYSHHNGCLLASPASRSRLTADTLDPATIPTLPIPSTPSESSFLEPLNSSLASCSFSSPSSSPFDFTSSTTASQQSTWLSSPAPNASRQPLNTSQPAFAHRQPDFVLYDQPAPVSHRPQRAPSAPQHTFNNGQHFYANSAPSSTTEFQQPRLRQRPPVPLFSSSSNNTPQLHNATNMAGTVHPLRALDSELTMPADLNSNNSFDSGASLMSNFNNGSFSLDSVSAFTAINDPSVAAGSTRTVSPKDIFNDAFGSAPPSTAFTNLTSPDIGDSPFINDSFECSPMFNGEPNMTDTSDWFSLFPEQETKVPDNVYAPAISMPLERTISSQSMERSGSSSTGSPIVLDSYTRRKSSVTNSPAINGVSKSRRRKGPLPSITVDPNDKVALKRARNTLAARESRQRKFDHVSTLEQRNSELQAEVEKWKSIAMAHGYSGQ
T1 sequence 2: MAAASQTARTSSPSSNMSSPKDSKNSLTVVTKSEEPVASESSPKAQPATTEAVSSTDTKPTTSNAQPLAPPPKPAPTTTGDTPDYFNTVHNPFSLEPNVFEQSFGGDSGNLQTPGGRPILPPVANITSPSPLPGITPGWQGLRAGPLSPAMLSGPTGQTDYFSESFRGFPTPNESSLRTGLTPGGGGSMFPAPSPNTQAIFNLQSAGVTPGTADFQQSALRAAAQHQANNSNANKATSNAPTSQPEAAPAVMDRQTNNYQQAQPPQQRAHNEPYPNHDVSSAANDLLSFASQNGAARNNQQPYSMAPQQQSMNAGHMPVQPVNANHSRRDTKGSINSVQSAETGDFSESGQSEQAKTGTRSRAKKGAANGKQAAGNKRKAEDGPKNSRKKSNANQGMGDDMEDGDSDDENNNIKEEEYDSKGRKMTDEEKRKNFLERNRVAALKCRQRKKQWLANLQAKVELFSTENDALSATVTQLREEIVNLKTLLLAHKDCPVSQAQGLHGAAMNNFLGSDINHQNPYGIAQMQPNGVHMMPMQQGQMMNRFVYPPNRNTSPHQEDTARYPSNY

B1: ChARG4 promoter probe (dsDNA)
DNA 1: CATTGGCGTTTGGGACTGAATTACAATGAGTAATGAAATAACTCACACCACAAAGCAGTA
DNA 2: TACTGCTTTGTGGTGTGAGTTATTTCATTACTCATTGTAATTCAGTCCCAAACGCCAATG
B2: ChATG8 promoter probe (dsDNA)
DNA 1: GGAGAGCGTGAAGGAGAGAGACGGGATGAGTCAAAGTACCCAGGTAGCCAGGTCATGGGA
DNA 2: TCCCATGACCTGGCTACCTGGGTACTTTGACTCATCCCGTCTCTCTCCTTCACGCTCTCC

Biological target: T1, ChCpc1;ChAtf1
Experiment: EMSA; enhanced versus ChCpc1 alone; Light Shift Chemiluminescent EMSA Kit (Beyotime), 20 min at 25°C; 6.5% polyacrylamide gel, 0.5x TBE; binding buffer, salt and pH not stated
Conditions: protein: recombinant;recombinant; tags: His (pET-32a);His (pET32a); copies: 1;1; label: biotin (on forward strand); blunt

Binder	binding result
B1	binds
B2	binds
